Test results taken from patent US20170291955A1.

Assays:
KI_II (mouse; human) [1] = molecular target: KI_II (mouse; human) (UniProt P70424); assay: SPR (ProteOn), variant captured, 39S injected; apparent affinity
KI_II (mouse; human) [2] = molecular target: KI_II (mouse; human) (UniProt P70424); assay: SPR (ProteOn XPR36), variant captured by anti-Her2 polyclonal antibody, 39S injected; apparent affinity
KO_I (mouse; human) = KO_I (mouse; human) (UniProt P70424); assay: as above

B1: 39S antibody (antibody, V domains shown)
VH: EVQLVESGGGLVKPGGSLRLSCAASGFTFSSYSMSWVRQAPGKGLEWVSSISSSSSYIYYADSVKGRFTISRDNAKNSLYLQMNSLRAEDTAVYYCARGGDAYNYYYFDYWGQGTLVTVSS
VL: DIVMTQTPLSLSVTPGQPASISCKSSQSVFFRSNNKNILAWYLQKPGQPPQLLIYWASSRESGVPDRFSGSGSGTDFTLKISRVEAEDVGVYYCQQYFGSPFTFGPGTKVDIK
Binder B1 has a Kd (KI_II (mouse; human) [1]) of 0.168 nM, a Kd (KI_II (mouse; human) [2]) of 0.163 nM and a Kd (KO_I (mouse; human)) of 0.095 nM.
